Measured values published in the supplement of paper PMC11136658.

Tested on: peptide library, one residue held at a place counted from the Y acceptor
Assay: relative phosphorylation of the sub-library (ratio to the mean residue at this position); higher = residue favoured
In short: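 Peptide library mixtures, biotinylated and centred on Tyr, each fixed one residue at one position from −5 to +5. Purified recombinant kinases were incubated with them for 90 min in 384-well plates alongside 50 μM ATP and γ-32P-ATP, and the captured, rinsed peptides on streptavidin membranes were measured by phosphorimaging and ImageQuant. Normalization divided each position's intensities by the sum of its 18 randomized residues (16 for the Ser/Thr-free library) and multiplied by that number, so that values give phosphorylation relative to the mean randomized residue.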

Sequence of DDR2, construct: aa522-end, human (Q16832 522-855, looked up): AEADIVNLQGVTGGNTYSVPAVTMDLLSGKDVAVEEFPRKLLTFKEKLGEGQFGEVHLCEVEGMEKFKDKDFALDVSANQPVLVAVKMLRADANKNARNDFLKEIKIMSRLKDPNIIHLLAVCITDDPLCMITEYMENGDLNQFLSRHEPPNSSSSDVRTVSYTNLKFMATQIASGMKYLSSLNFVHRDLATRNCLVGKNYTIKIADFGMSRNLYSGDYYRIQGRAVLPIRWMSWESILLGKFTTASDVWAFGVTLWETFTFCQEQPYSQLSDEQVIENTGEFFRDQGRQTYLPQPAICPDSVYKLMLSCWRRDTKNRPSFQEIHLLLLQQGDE

DDR2, construct: aa522-end, human (from UniProt Q16832)
relative phosphorylation
Conditions	at +1	at +2	at +3	at +4	at +5	at -1	at -2	at -3	at -4	at -5
A fixed	2.33	0.781	0.51	0.457	0.507	1.2	0.969	0.938	0.924	1.1
D fixed	0.221	0.71	0.309	1.13	0.445	1.83	0.707	0.692	0.688	0.848
E fixed	0.206	1.66	0.283	1.36	0.393	0.583	0.635	0.567	0.724	0.771
F fixed	0.905	0.738	1.38	2.06	2.29	0.517	0.358	1.13	0.728	0.723
G fixed	0.361	0.37	0.296	0.372	0.632	0.617	1.19	1.09	1.43	1.38
H fixed	0.894	0.92	0.901	1.63	0.817	1.14	1.58	1.82	1.29	1.17
I fixed	1.13	1.08	3.3	1.09	2.43	0.879	0.316	0.472	0.627	0.548
K fixed	0.899	0.687	0.35	0.56	0.607	0.653	1.85	1.44	1.6	1.42
L fixed	0.602	1.42	1.94	0.851	1.4	0.828	0.449	0.466	0.581	0.702
M fixed	1.12	1.3	2.09	0.824	1.08	0.593	0.597	0.534	0.933	0.787
N fixed	0.502	1.03	0.365	1.05	0.747	2.72	1.66	1.3	0.985	1.01
P fixed	0.745	0.655	0.306	0.383	0.962	1.57	1.55	1.15	1.52	1.45
Q fixed	0.823	0.933	0.505	1.02	0.56	0.829	1.1	0.917	1.01	0.996
R fixed	1.38	0.825	0.49	0.88	0.861	0.656	2.03	1.96	1.89	1.67
S fixed	1.04	1.14	0.464	0.701	0.586	0.989	1.21	0.968	0.876	1.02
T fixed	1.54	1.18	0.991	0.855	0.688	1.11	1.03	0.906	0.858	0.905
V fixed	2.79	1.32	1.95	1.02	1.76	0.839	0.372	0.553	0.651	0.73
W fixed	0.511	1.24	1.58	1.76	1.24	0.438	0.383	1.1	0.679	0.754
pThr fixed	0.698	1.61	0.5	1.87	0.616	0.706	0.487	0.467	0.612	0.696
pTyr fixed	0.68	2.07	0.439	2.16	0.38	0.474	0.473	0.614	0.613	0.75

SYK, construct: Full length, human (from UniProt P43405)
relative phosphorylation
Conditions	at +1	at +2	at +3	at +4	at +5	at -1	at -2	at -3	at -4	at -5
A fixed	0.893	0.772	0.955	0.937	0.988	0.68	0.908	0.734	1.07	0.954
D fixed	1.01	1.13	0.812	1.23	1.14	4.23	2.04	2.29	1.89	1.54
E fixed	4.05	1.74	0.941	1.39	1.2	3.04	2.21	2.61	1.96	1.49
F fixed	0.838	1.27	1.12	1.09	1	0.665	0.675	0.914	1.07	1.02
G fixed	0.363	0.78	1.2	0.965	0.96	0.379	1.04	0.896	0.964	1.03
H fixed	0.665	0.752	0.813	0.988	0.919	0.673	0.863	0.873	0.769	0.933
I fixed	1.22	1.02	1.51	0.751	0.826	1.17	0.766	0.689	0.773	0.949
K fixed	0.25	0.588	0.584	0.875	0.916	0.204	0.46	0.459	0.593	0.681
L fixed	0.86	0.929	1.02	0.802	0.966	0.912	0.837	0.805	0.99	1.04
M fixed	0.907	0.965	0.924	1.1	0.944	0.725	0.728	0.758	0.818	0.944
N fixed	0.505	1.11	0.771	0.896	1.03	1.02	1.21	1.26	0.868	1.13
P fixed	0.288	0.669	1.67	1.08	1.27	0.672	1.03	0.868	1.08	0.966
Q fixed	1.1	0.972	0.761	1.11	0.983	0.674	1.13	0.864	1.11	1.08
R fixed	0.302	0.74	0.619	0.856	0.926	0.219	0.535	0.523	0.641	0.716
S fixed	1.1	1.01	0.892	0.97	0.965	0.587	1.1	0.915	0.758	0.895
T fixed	1.23	1.02	0.907	0.932	1.1	0.779	0.832	0.885	0.651	0.725
V fixed	1.47	0.978	1.4	0.874	0.89	0.935	0.857	0.703	0.811	0.772
W fixed	0.951	1.56	1.1	1.14	0.961	0.44	0.771	0.948	1.19	1.14
pThr fixed	3.24	2.33	0.946	1.54	1.38	6.21	3.86	2.93	2.36	1.85
pTyr fixed	6.41	3.62	1.53	1.73	1.32	4.49	2.56	3.83	2.99	2.2
